Experimental data: the Human Domainome abundance scans (Beltran et al. 2025)
± gives the uncertainty stated by the source.

B1: GA-binding protein alpha chain, residues 172 to 250; numbered along this chain, Q06546 (parent)
chain: GYRKEQERLGIPYDPIQWSTDQVLHWVVWVMKEFSMTDIDLTTLNISGRELCSLNQEDFFQRVPRGEILWSHLELLRKY

Variants of: B1
Assay: abundance fitness (aPCA) (normalised: wild type 0, dead -1); higher = more abundant; growth selection in yeast, the domain comes from the species named
Conditions: Homo sapiens

Row | Variant | abundance fitness
1 | GYRKEQERLGIPYDPIQWSTDGVLHWVVWVMKEFSMTDIDLTTLNISGRELCSLNQEDFFQRVPRGEILWSHLELLRKY | -0.88 ± 0.063
2 | GYRKEQERLGIPYDPIQWSTDQKLHWVVWVMKEFSMTDIDLTTLNISGRELCSLNQEDFFQRVPRGEILWSHLELLRKY | -0.791 ± 0.14
3 | GYRKEQERLGIPYDPIQWSTDQDLHWVVWVMKEFSMTDIDLTTLNISGRELCSLNQEDFFQRVPRGEILWSHLELLRKY | -0.873 ± 0.062
4 | GYRKEQERLGIPYDPIQWSTDQELHWVVWVMKEFSMTDIDLTTLNISGRELCSLNQEDFFQRVPRGEILWSHLELLRKY | -0.951 ± 0.18
5 | GYRKEQERLGIPYDPIQWSTDQRLHWVVWVMKEFSMTDIDLTTLNISGRELCSLNQEDFFQRVPRGEILWSHLELLRKY | -0.724 ± 0.066
6 | GYRKEQERLGIPYDPIQWSTDQLLHWVVWVMKEFSMTDIDLTTLNISGRELCSLNQEDFFQRVPRGEILWSHLELLRKY | -0.746 ± 0.058
7 | GYRKEQERLGIPYDPIQWSTDQGLHWVVWVMKEFSMTDIDLTTLNISGRELCSLNQEDFFQRVPRGEILWSHLELLRKY | -0.982 ± 0.08
8 | GYRKEQERLGIPYDPIQWSTDQTLHWVVWVMKEFSMTDIDLTTLNISGRELCSLNQEDFFQRVPRGEILWSHLELLRKY | -0.058 ± 0.037
9 | GYRKEQERLGIPYDPIQWSTDQQLHWVVWVMKEFSMTDIDLTTLNISGRELCSLNQEDFFQRVPRGEILWSHLELLRKY | -0.9 ± 0.13
10 | GYRKEQERLGIPYDPIQWSTDQHLHWVVWVMKEFSMTDIDLTTLNISGRELCSLNQEDFFQRVPRGEILWSHLELLRKY | -0.966 ± 0.2
11 | GYRKEQERLGIPYDPIQWSTDQPLHWVVWVMKEFSMTDIDLTTLNISGRELCSLNQEDFFQRVPRGEILWSHLELLRKY | -0.909 ± 0.091
12 | GYRKEQERLGIPYDPIQWSTDQMLHWVVWVMKEFSMTDIDLTTLNISGRELCSLNQEDFFQRVPRGEILWSHLELLRKY | -0.844 ± 0.15
13 | GYRKEQERLGIPYDPIQWSTDQILHWVVWVMKEFSMTDIDLTTLNISGRELCSLNQEDFFQRVPRGEILWSHLELLRKY | -0.794 ± 0.14
14 | GYRKEQERLGIPYDPIQWSTDQWLHWVVWVMKEFSMTDIDLTTLNISGRELCSLNQEDFFQRVPRGEILWSHLELLRKY | -1.04 ± 0.16
15 | GYRKEQERLGIPYDPIQWSTDQCLHWVVWVMKEFSMTDIDLTTLNISGRELCSLNQEDFFQRVPRGEILWSHLELLRKY | -0.53 ± 0.08
16 | GYRKEQERLGIPYDPIQWSTDQSLHWVVWVMKEFSMTDIDLTTLNISGRELCSLNQEDFFQRVPRGEILWSHLELLRKY | -0.839 ± 0.067
17 | GYRKEQERLGIPYDPIQWSTDQALHWVVWVMKEFSMTDIDLTTLNISGRELCSLNQEDFFQRVPRGEILWSHLELLRKY | -0.575 ± 0.06
18 | GYRKEQERLGIPYDPIQWSTDQYLHWVVWVMKEFSMTDIDLTTLNISGRELCSLNQEDFFQRVPRGEILWSHLELLRKY | -0.804 ± 0.22

Row | Variant | abundance fitness
19 | GYRKEQERLGIPYDPIQWSTDQFLHWVVWVMKEFSMTDIDLTTLNISGRELCSLNQEDFFQRVPRGEILWSHLELLRKY | -0.89 ± 0.16
20 | GYRKEQERLGIPYDPIQWSTYQVLHWVVWVMKEFSMTDIDLTTLNISGRELCSLNQEDFFQRVPRGEILWSHLELLRKY | -0.27 ± 0.084
21 | GYRKEQERLGIPYDPIQWSTHQVLHWVVWVMKEFSMTDIDLTTLNISGRELCSLNQEDFFQRVPRGEILWSHLELLRKY | -0.049 ± 0.054
22 | GYRKEQERLGIPYDPIQWSTNQVLHWVVWVMKEFSMTDIDLTTLNISGRELCSLNQEDFFQRVPRGEILWSHLELLRKY | -0.044 ± 0.073
23 | GYRKEQERLGIPYDPIQWSTMQVLHWVVWVMKEFSMTDIDLTTLNISGRELCSLNQEDFFQRVPRGEILWSHLELLRKY | -0.134 ± 0.09
24 | GYRKEQERLGIPYDPIQWSTTQVLHWVVWVMKEFSMTDIDLTTLNISGRELCSLNQEDFFQRVPRGEILWSHLELLRKY | -0.114 ± 0.055
25 | GYRKEQERLGIPYDPIQWSTIQVLHWVVWVMKEFSMTDIDLTTLNISGRELCSLNQEDFFQRVPRGEILWSHLELLRKY | -0.36 ± 0.068
26 | GYRKEQERLGIPYDPIQWSTGQVLHWVVWVMKEFSMTDIDLTTLNISGRELCSLNQEDFFQRVPRGEILWSHLELLRKY | -0.002 ± 0.031
27 | GYRKEQERLGIPYDPIQWSTSQVLHWVVWVMKEFSMTDIDLTTLNISGRELCSLNQEDFFQRVPRGEILWSHLELLRKY | -0.029 ± 0.036
28 | GYRKEQERLGIPYDPIQWSTAQVLHWVVWVMKEFSMTDIDLTTLNISGRELCSLNQEDFFQRVPRGEILWSHLELLRKY | -0.031 ± 0.044
29 | GYRKEQERLGIPYDPIQWSTFQVLHWVVWVMKEFSMTDIDLTTLNISGRELCSLNQEDFFQRVPRGEILWSHLELLRKY | -0.391 ± 0.094
30 | GYRKEQERLGIPYDPIQWSTPQVLHWVVWVMKEFSMTDIDLTTLNISGRELCSLNQEDFFQRVPRGEILWSHLELLRKY | -0.089 ± 0.03
31 | GYRKEQERLGIPYDPIQWSTWQVLHWVVWVMKEFSMTDIDLTTLNISGRELCSLNQEDFFQRVPRGEILWSHLELLRKY | -0.185 ± 0.04
32 | GYRKEQERLGIPYDPIQWSTVQVLHWVVWVMKEFSMTDIDLTTLNISGRELCSLNQEDFFQRVPRGEILWSHLELLRKY | -0.172 ± 0.035
33 | GYRKEQERLGIPYDPIQWSTKQVLHWVVWVMKEFSMTDIDLTTLNISGRELCSLNQEDFFQRVPRGEILWSHLELLRKY | -0.029 ± 0.084
34 | GYRKEQERLGIPYDPIQWSTRQVLHWVVWVMKEFSMTDIDLTTLNISGRELCSLNQEDFFQRVPRGEILWSHLELLRKY | -0.096 ± 0.032
35 | GYRKEQERLGIPYDPIQWSTLQVLHWVVWVMKEFSMTDIDLTTLNISGRELCSLNQEDFFQRVPRGEILWSHLELLRKY | -0.414 ± 0.042
